The test concerns the target T1, E6APD543A (Homo sapiens, UniProt Q05086, D566A).
T1 construct: made in house; host or cells: E. coli
T1 sequence (Q05086 1-872 isoform Q05086-3 D563A): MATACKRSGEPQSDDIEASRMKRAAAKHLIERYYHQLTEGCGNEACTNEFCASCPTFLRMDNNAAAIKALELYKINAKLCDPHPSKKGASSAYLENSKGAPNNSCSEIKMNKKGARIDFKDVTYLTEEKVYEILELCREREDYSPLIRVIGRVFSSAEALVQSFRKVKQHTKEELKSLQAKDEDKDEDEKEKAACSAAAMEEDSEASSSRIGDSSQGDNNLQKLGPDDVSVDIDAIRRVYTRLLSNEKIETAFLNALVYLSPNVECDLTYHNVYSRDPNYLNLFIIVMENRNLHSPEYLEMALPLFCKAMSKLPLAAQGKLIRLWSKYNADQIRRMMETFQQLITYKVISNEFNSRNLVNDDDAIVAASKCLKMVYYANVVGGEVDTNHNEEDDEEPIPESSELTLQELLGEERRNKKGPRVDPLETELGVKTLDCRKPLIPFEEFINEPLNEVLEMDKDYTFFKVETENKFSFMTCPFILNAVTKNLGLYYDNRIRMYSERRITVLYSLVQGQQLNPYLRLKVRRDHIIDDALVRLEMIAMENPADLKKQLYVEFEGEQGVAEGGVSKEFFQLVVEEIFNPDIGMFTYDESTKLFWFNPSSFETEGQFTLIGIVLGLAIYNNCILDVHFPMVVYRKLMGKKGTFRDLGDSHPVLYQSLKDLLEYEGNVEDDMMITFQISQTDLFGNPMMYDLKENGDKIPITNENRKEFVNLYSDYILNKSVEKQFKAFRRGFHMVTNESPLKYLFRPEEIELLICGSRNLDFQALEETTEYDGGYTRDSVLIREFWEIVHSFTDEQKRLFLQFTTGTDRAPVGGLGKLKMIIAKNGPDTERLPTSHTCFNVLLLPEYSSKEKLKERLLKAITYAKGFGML
Briefly: E6 rescue of 125I-polyubiquitin chain formation by E6APD543A. In kind it is biochemical. As to conditions: 20 nM E6 protein. Here is the method:
E6AP-catalyzed ^125I-Ubiquitin Conjugation Assay: The E3 ligase activity of recombinant E6AP ligase was quantitated in kinetic assays under initial velocity conditions (Ronchi et al., (2013) J. Biol. Chem. 288, 10349-10360, Ronchi & Haas (2012) Methods Mol. Biol. 832: 197-218). Rates of E6AP-catalyzed ^125I-polyubiquitin chain formation were measured at 37° C. in incubations of 25-μl final volume containing 50 mM Tris-HCl (pH 7.5), 1 mM ATP, 10 mM MgCl2, 1 mM DTT, 10 mM creatine phosphate, 1 IU of creatine phosphokinase, 5 μM ^125I-ubiquitin (approximately 1.5×10^4 cpm/pmol), 50 nM human Uba1, and the indicated concentrations of UbcH7 and E6AP ligase (Siepmann et al., (2003) J. Biol. Chem. 278: 9448-9457; Baboshina et al., (2001) J. Biol. Chem. 276: 39428-39437). […]
Polyubiquitin chain formation was measured by excising lanes between the top of the resolving gel and the top of the stacker gel, representing anchored and free ^125I-polyubiquitin chains, respectively, and quantitating associated ^125I-ubiquitin by γ-counting. Absolute rates of ^125I-polyubiquitin chain formation were calculated from the associated radioactivity and the corrected specific radioactivity for ^125I-ubiquitin. Datum points represent single assay determinations, and complete data sets were evaluated by non-linear regression analysis using GraFit version 5.0 (Erithicus). […]

The source of these data is US9725708B2, “Methods of modulating ubiquitin ligase activity” (Board of Supervisors of Louisiana State University and …, priority 2012, dated 2017).

B1: E6 protein: recombinant human papilloma virus 16 E6 protein, 158 amino acids (protein)
chain: MHQKRTAMFQDPQERPRKLPQLCTELQTTIHDIILECVYCKQQLLRREVYDFAFRDLCIVYRDGNPYAVCDKCLKFYSKISEYRHYCYSLYGTTLEQQYNKPLCDLLIRCINCQKPLCPEEKQRHLDKKQRFHNIRGRWTGRCMSCCRSSRTRRETQL
Turning to B1, the effect on rate entry is “no enhancement in rate”.
